Values quoted from earlier work as cited in publication PMC7587574.
Read-outs that look alike come from different tables or passages of the source.

Assays:
[1] = molecular target: PACAP receptor (PAC1R) (Homo sapiens) (UniProt P41586)
[2] = molecular target: PACAP receptor (PAC1R) (Homo sapiens) (UniProt P41586); remark: listed apart in the source
[3] = molecular target: κ-opioid receptor (Homo sapiens) (UniProt P41145)
Sequence of κ-opioid receptor (Homo sapiens) (P41145 whole entry): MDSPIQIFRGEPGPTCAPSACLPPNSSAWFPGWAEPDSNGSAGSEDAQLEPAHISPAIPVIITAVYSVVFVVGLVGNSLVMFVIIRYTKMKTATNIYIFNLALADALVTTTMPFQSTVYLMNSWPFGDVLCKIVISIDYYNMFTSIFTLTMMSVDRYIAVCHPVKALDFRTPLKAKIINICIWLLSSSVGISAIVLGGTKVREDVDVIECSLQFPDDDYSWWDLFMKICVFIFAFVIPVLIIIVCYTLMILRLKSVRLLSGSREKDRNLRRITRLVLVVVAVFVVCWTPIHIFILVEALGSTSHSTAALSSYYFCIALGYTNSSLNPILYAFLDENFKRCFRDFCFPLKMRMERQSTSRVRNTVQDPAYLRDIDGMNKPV

Sequence of PACAP receptor (PAC1R) (Homo sapiens) (P41586 21-468): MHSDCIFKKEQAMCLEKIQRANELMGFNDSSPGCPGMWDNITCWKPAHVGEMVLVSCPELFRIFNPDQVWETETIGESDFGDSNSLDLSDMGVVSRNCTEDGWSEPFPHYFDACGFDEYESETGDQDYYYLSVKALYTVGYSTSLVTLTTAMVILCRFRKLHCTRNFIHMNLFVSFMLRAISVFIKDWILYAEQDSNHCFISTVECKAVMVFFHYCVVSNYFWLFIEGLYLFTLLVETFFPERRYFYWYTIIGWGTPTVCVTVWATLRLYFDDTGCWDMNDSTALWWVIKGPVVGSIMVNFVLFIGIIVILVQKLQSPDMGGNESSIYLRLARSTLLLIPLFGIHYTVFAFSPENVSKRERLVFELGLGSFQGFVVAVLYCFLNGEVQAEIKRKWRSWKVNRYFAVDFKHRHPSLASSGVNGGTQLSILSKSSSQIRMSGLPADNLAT
Sequence of PACAP (truncated) (P18509 137-169): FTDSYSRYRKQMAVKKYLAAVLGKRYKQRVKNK
Sequence of PACAP (P18509 82-129): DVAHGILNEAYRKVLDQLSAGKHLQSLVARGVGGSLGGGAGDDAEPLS

PACAP (truncated) (from UniProt P18509)
Kd [1]: 18 µM

PACAP (from UniProt P18509)
Kd [2]: 3 nM

dynorphin 13-mer fragment (from UniProt P01213)
Kd [3]: 200 nM
